The values below come from PMC11746992 (Nature Communications, 2025).

The target in the assay is VP4 coated on microplates (indirect blocking ELISA) (Rotavirus A, simian strain SA11 …, UniProt A2T3T2). Briefly: ELISA.

B1: C7H13 (chimeric antibody: variable regions of 7H13 in a human antibody framework) (antibody, V domains shown)
VH: QVQLKESGPGLVAPSQSLSITCTVSGFSLSRYSVHWVRQPPGKGLEWLGMIWNIGSTDYNSALKSRLSISKDNSQSQVFLKLNSLQTDDAAIYYCARNSGFDLFDFWGQGTTLTVS
VL: DIVMTQSHKFMSTSVGDRVSITCKASQDVTSAVAWYQQKPGQSPKLLISSASYRYTGVPDRFSGSGSGTDFTFTISSVQAEDLAVYYCQQHYSTPPTFGAGTKLELK
With B1, the binding result is listed as “binds”.

B2: m41# (engineered mouse Fc version of 41#) (antibody, V domains shown)
VH: EVQLVESGGGPVQPGGSLKLSCAASGFTFSNYEMYWVRQAPGKGLEWVSYISTSPAITYYADSVRGRFTISRDNAKSSLYLHMNSLRAEDTAVYYCATISHQQFSSGWNAWFDPWGQGTLVTVSG
VL: NFMLTQPHSVSESPGKTVTISCTGSSGSIASNYVQWYRQRPGSAPTTVIYENYQRPSGVPARFSGSIDRSSNSASLTISGLQTDDEADYYCQSYDNNNLWVFGGGTKLTVL
On to B2, for which the binding result is listed as “binds”.
